Experimental data taken from article PMC4022879.

Columns and labels:
[1] = target: bovine pancreatic trypsin (bovine); experiment: chromogenic enzyme inhibition assay; 1 nM trypsin, 500 μM S2765, 37 °C, 110 mM Tris-HCl pH 8.0, 250 mM NaCl, 1% BSA; residual activity in triplicate at at least six inhibitor concentrations; Ki from a linear fit of 1/v against inhibitor concentration
[2] = target: activated coagulation factor XI (FXIa); experiment: chromogenic enzyme inhibition assay; 200 pM FXIa, 500 μM S2366, 37 °C, 110 mM Tris-HCl pH 8.0, 250 mM NaCl, 1% BSA; residual activity in triplicate at at least six inhibitor concentrations; Ki from a linear fit of 1/v against inhibitor concentration
[3] = target: activated coagulation factor XII (FXIIa); experiment: chromogenic enzyme inhibition assay; 1 nM FXIIa, 500 μM S2302, 37 °C, 110 mM Tris-HCl pH 8.0, 250 mM NaCl, 1% BSA; residual activity in triplicate at at least six inhibitor concentrations; Ki from a linear fit of 1/v against inhibitor concentration

## CHFI-2, synthetic cyclic peptide that resembles the CHFI protease-binding loop (from UniProt P01088 48-73)
[1]
  Ki: 11700 nM
[2]
  Ki: 94000 nM

## CHFI-123 (from UniProt P01088 29-121) (domain or fragment)
[3]
  Ki: 116 nM

## CHFI-234 (from UniProt P01088 40-136) (domain or fragment)
[1]
  Ki: 2.2 nM
[3]
  Ki: 3.2 nM

## CHFI-1234 (from UniProt P01088 29-108) (domain or fragment)
[1]
  Ki: 1 nM
[3]
  Ki: 1 nM
